Test results taken from paper PMC3743801.

Target: C-terminal vinculin homology domain of α-catenin (α-catenin635–906) (UniProt P35221)
Test: fluorescence polarisation; fluorescence anisotropy of FITC-labelled EspB fragments (fluorescein at the N-terminus) and of EspB with α-catenin635–906; KD by nonlinear curve fitting; buffer and temperature not stated

UniProt P35221, sequence (P35221 635-906): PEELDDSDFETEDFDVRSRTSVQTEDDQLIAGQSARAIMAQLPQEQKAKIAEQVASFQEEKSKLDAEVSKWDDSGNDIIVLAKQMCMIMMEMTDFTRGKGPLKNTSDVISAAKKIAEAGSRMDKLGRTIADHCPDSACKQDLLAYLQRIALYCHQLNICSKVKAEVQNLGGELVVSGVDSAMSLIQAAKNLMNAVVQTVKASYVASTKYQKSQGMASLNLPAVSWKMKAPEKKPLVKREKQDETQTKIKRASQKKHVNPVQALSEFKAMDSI

Substance | Kd [µM]
EspB41–60 (peptide) | 23
EspB41–70 (peptide) | 2.5
EspB51–70 (peptide) | 12
EspB from enterohaemorrhagic E. coli (EHEC) (natural protein) | 2.9
